Consider one substance from patent US20050085421A1.

The assay addresses GHSR-1a. Kind of assay: 125I-ghrelin saturation binding on GHSR-1a membranes (typical value of membrane stock).

125I-ghrelin (peptide): the Bmax was determined as 6 fmol/µg.
